Laboratory results reported in the Immune Epitope Database (IEDB).

Columns and labels:
HLA-B*27:05 = experiment: IEDB peptide-MHC binding, purified MHC/direct/fluorescence; filed as Kd, often an IC50 or EC50 that approximates it; ≥ and ≤ were set here for values at or beyond the usual limits of such assays; details: source organism: SARS-CoV1
HLA-B*15:01 = experiment: as above; details: source organism: SARS-CoV1
HLA-A*01:01 [1] = experiment: as above; details: source organism: SARS-CoV1
HLA-A*11:01 = experiment: as above; details: source organism: SARS-CoV1
HLA-A*03:01 = experiment: as above; details: source organism: SARS-CoV1
HLA-A*24:02 = experiment: IEDB peptide-MHC binding, purified MHC/competitive/radioactivity; filed as Kd, often an IC50 or EC50 that approximates it; ≥ and ≤ were set here for values at or beyond the usual limits of such assays
HLA-A*30:02 = experiment: as above
HLA-A*26:01 = experiment: as above
HLA-A*29:02 = experiment: as above
HLA-A*23:01 = experiment: as above
HLA-A*01:01 [2] = experiment: as above
HLA-B*08:01 = experiment: as above; details: source organism: Vaccinia virus WR
HLA-B*53:01 = experiment: as above; details: source organism: Dengue virus 3 Martinique/1243/1999
[3] = source organism: SARS coronavirus Tor2
[4] = source organism: Mammarenavirus choriomeningitidis
[5] = source organism: Mammarenavirus whitewaterense

Sequence | Kd (HLA-A*24:02; [3]) [µM] | Kd (HLA-A*30:02; [3]) [µM] | Kd (HLA-A*26:01; [3]) [µM] | Kd (HLA-A*29:02; [3]) [µM] | Kd (HLA-A*23:01; [3]) [µM] | Kd (HLA-B*08:01) [µM] | Kd (HLA-A*01:01 [2]; [3]) [µM] | other results
RVDFCGKGY | ≥ 77.6 | 0.02 | 7.68 | 9.23 | ≥ 77.8 | – | – | Kd (HLA-B*27:05): 3.89 µM; Kd (HLA-B*15:01): 1.09 µM; Kd (HLA-A*01:01 [1]): 1 µM; Kd (HLA-A*11:01): 7.73 µM; Kd (HLA-A*03:01): 1.89 µM
WCSQTDYQY | – | – | – | – | – | – | – | Kd (HLA-A*01:01 [2]; [4]): 1.16 µM; Kd (HLA-A*24:02; [4]): ≥ 77.5 µM; Kd (HLA-A*30:02; [4]): 0.342 µM; Kd (HLA-A*26:01; [4]): ≥ 77.9 µM; Kd (HLA-A*29:02; [4]): 0.258 µM; Kd (HLA-A*23:01; [4]): ≥ 77.7 µM
RLKTRIRNL | – | – | – | – | – | 0.000694 | – | –
LLKLGFEEI | – | – | – | – | – | 0.51 | – | –
SPLSKCVVV | – | – | – | – | – | 0.0309 | – | –
FDEISMATNY | ≥ 70.3 | 4.1 | 0.699 | 0.0184 | ≥ 70 | – | 13 | –
YQPESQKFI | – | – | – | – | – | – | – | Kd (HLA-A*24:02; [5]): 8.48 µM; Kd (HLA-A*29:02; [5]): 3.39 µM; Kd (HLA-A*23:01; [5]): 7.21 µM
LATGPITTLW | – | – | – | – | – | – | – | Kd (HLA-B*53:01): 0.0786 µM
NPSFKRQII | – | – | – | – | – | 0.0195 | – | –
HFAIGLALYY | ≥ 70.3 | 0.236 | 0.00653 | 0.000233 | ≥ 60.9 | – | 2.32 | –
FYFTNDVSFL | 0.0475 | ≥ 34.2 | 9.34 | 0.384 | 0.0592 | – | 2 | –
RYNTRGNTY | 1.79 | 0.0313 | ≥ 52.2 | 1.77 | 8.93 | – | 13.9 | –
